US9850292B2, “Compositions which regulate the epithelial brush border Na+/H+ exchanger NHE3 and their methods of use in gastrointestinal disease” (THE JOHNS HOPKINS UNIVERSITY, priority 2012, dated 2017)
Like-named read-outs stand apart in the source and are kept apart here. The star is where a group is joined. Biotin = O=C1N[C@H]2[C@H](CS[C@H]2CCCCC(=O)*)N1

How the values were obtained:
[1] = target: T1, rabbit NHE3 (rNHE3) (Oryctolagus cuniculus, UniProt P26432); format: cell-based; design: amplified from pcDNA 3.1 containing the full-length NHE3V (pcDNA 3.1/NHE3V); expressed in transfected cells
[2] = target: T2, NHE3 (Mus musculus, UniProt G3X939); assay: NHE3 activity in mouse jejunum in vitro, BCECF/microscopy; format: cell-based; settings: FIG. 4B
T2 construct: from tissue; host or cells: mouse jejunum, exposed in vitro
Experimental: (§1) FIG. 4A is a bar graph depicting the results when Caco-2/HA-NHE3 cells were exposed to IRCX-CP (400 nM) for 15 minutes then basal, carbachol (cch) (10 μM) inhibited and EGF (200 ng/ml) stimulated NHE3 were determined (n=4). FIG. 4B is another bar graph depicting the effects when mouse jejunum was exposed in vitro to IRCX-CP (400 nM) and/or forskolin (10 μM) for 15 minutes with NHE3 activity determined by BCECF.
The fluorescent peptides described above were then loaded into PS120/NHERF2/NHE3, Caco2/NHE3 cells, and mouse small intestine. It was established that loading reaches a maximum in 15 minutes (37° C.) (FIG. 3) and is stable for at least 6 hours. To evaluate the effect of these peptides on NHE3 regulation, PS120 and Caco-2 cells were exposed to 400-1600 nM Bodipy 577/618-peptide and used BCECF/fluorometry to characterize the peptide's effects on basal NHE3 activity and after Ca^2+ elevation and EGF exposure. In studies in both cell types, all peptide concentrations studied stimulated basal NHE3 activity by about 40%, and reduced Ca^2+ inhibition of NHE3 by about 50% in PS 120 cells (data not shown) and entirely in Caco-2 cells (FIG. 4A).

[3] = target: T1, rabbit NHE3 (rNHE3); assay: BCECF/fluorometry Na+/H+ exchange activity in Caco-2 cells; format: cell-based; design: expressed in transfected cells; host or cells: Caco-2BBe cells, transient adenoviral infection (ADLOX.HTM shuttle vector, CMV promoter)
Experimental: as §1
Cell Lines. PS120 fibroblasts lack all endogenous plasma membrane NHEs, NHERF1 (minimal expression), NHERF2, NHERF3 and NHERF4. These cells, when stably expressing rabbit NHE3 with a C-terminal VSV-G protein epitope tag and NHERF2, are called PS120/NHE3/NHERF2 cells (or PS120/E3V/NHERF2 cells), as described (stable cell lines made using pcDNA 3.1, G418 and hygromycin, Invitrogen). Caco-2BBe cells express all four members of the NHERF gene family and small amounts NHE3 (Caco-2BBe/3HA-NHE3 cells). Triple HA-tagged rabbit NHE3 was expressed by adenovirus into Caco-2BBe cells for transport and biochemical analysis.
Adenoviral Constructs/Infection. Caco-2BBe cells which endogenously express the four members of the NHERF gene family and small amounts of NHE3 were transiently infected with triple HA-tagged rNHE3 previously engineered into replication-deficient Adeno-viral shuttle vector ADLOX.HTM under a cytomegalovirus promoter. Caco-2BBe cells were first grown on Transwell filters (Corning) until 12 days post-confluence in “Caco-2 medium.” Cells were then treated with serum-free media containing 6 mM EGTA for 2 hours at 37° C. to allow the tight junctions to open, further exposing apical and basolateral surfaces to the virus. […]
Measurement of Na^+/H^+ Exchange. Cellular Na^+/H^+ exchange activity in PS 120 cells grown to about 70% confluency on glass coverslips was determined fluorometrically using the intracellular pH-sensitive dye 2′,7′-bis(carboxyethyl)5-6-carboxyfluoresceinacetoxymethyl ester (BCECF-AM, 5μM; Molecular Probes, Eugene, Oreg.). […] At the end of each experiment, the fluorescence ratio was calibrated to pHi using the high potassium/nigericin method. Na^+/H^+ exchange activity data were calculated as the product of Na^+ dependent changes in pHi times the buffering capacity at each pHi, and individual points shown in the figures are ratios of Na^+/H^+ exchange calculated at multiple pHi values using at least three coverslips per condition in a single experiment. Kinetics of Na^+/H^+ exchange were analyzed by Hill plot using Origin (Microcal Software) to estimate Vmax and K′(H^+)i in individual experiments. Means+/−S.E.M. were determined from at least three separate experiments. […]

[4] = test system: murine jejunum exposed to cholera toxin; settings: mouse, in vivo

T1 sequence (P26432 30-832): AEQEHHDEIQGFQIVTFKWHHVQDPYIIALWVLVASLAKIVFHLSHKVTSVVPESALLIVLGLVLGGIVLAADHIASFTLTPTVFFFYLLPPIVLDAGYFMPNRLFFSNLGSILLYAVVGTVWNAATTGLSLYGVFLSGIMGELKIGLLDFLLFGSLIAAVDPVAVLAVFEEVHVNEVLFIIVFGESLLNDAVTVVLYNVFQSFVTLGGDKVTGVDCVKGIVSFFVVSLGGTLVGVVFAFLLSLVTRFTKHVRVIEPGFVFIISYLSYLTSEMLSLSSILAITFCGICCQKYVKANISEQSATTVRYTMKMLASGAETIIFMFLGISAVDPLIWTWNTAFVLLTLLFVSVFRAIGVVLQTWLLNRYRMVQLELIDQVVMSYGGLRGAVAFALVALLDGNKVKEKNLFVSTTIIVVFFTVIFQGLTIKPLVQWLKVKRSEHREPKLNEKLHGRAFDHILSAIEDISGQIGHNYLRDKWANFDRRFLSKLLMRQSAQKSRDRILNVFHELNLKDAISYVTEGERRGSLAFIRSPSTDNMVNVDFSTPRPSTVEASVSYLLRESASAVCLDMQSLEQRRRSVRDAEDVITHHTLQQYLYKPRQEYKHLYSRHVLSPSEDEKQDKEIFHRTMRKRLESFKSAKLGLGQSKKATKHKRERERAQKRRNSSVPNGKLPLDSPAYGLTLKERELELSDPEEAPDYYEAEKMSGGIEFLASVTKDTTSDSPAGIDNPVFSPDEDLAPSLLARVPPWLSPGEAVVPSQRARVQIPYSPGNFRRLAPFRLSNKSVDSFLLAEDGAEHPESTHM
T2 sequence (G3X939 27-829): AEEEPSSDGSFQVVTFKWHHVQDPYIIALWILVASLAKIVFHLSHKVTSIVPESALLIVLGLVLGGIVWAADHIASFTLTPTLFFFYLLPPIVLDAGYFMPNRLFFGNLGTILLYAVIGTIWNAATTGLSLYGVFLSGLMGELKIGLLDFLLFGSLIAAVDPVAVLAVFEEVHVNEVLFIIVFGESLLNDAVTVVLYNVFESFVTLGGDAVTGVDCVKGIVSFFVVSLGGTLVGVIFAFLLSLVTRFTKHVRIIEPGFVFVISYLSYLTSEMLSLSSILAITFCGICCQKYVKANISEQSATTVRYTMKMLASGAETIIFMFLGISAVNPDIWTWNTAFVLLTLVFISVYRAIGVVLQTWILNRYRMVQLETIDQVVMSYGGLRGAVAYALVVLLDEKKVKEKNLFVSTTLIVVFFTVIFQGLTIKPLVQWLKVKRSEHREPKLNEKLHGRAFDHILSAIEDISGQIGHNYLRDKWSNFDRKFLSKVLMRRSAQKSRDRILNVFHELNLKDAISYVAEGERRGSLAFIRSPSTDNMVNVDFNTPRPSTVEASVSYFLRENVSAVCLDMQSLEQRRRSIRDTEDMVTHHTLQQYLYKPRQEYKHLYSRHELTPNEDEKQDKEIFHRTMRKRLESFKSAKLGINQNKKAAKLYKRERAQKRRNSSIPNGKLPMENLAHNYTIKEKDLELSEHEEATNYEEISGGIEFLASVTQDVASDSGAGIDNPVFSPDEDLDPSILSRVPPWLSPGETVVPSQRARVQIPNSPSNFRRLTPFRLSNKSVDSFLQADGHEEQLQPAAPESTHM

Substance: Bodipy 577/618-peptide: 38 aa rabbit NHE3 aa 568-605 peptide (SEQ ID NO: 1), biotin on N-terminus, C-terminus linked to Bodipy 577/618 maleimide (Biotin-NVDFSTPRPSTVEASVSYLLRESASAVCLDMQSLEQRR-{Bodipy 577/618 maleimide}; listed as Oryctolagus cuniculus)
- peptide concentration at which effects were maximum [1]: 400 nM
- reduction of Ca2+ inhibition of NHE3 [1]: about 50%
- stimulation of basal NHE3 activity [1]: about 40%
- stimulation of basal NHE3 activity ([2]; 400 nM, 15 minutes): 60%
- prevention of NHE3 inhibition by forskolin ([2]; forskolin 10 μM, 400 nM peptide): totally prevented
- stimulation of basal NHE3 activity ([3]; 400-1600 nM peptide, all concentrations studied): about 40%
- reduction of Ca2+ inhibition of NHE3 ([3]; after Ca2+ elevation (carbachol 10 μM), FIG. 4A): entirely
- peptide concentration at which effects were maximum ([3]; effect at saturation): 400 nM
- cholera toxin fluid accumulation [4]: prevented cholera toxin fluid accumulation

Substance: NVDFSTPRPSTVEASVSYLLRESASAVCLDMQSLEQRR (listed as Oryctolagus cuniculus) [peptide without Bodipy]
- effect on NHE3 activity [1]: did not alter NHE3 activity
- effect on NHE3 activity [3]: did not alter NHE3 activity
